In the supplement of paper PMC10724198:
± gives the standard deviation of the averaged measurements.

What follows are sequences tested on Saccharomyces cerevisiae (assay: protein stability index of tFT-peptide fusion (C-terminal peptide) (PSI (0-1 scale)); higher = more stable (slower turnover)). Conditions: genetic background: wild type; temperature: 30 C.
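Further: PSI is a weighted mean of sequencing reads over stability bins, variants kept only with over 10 reads, mCherry proximal and sfGFP distal, peptide attached via GGGS linker.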

Sequence | protein stability index
RTTNHRLPQPPR | 0.632 ± 0.063
TSPTPPPTPCRS | 0.6927 ± 0.0067
IKKKKEEKKKKK | 0.586 ± 0.023
SCTPPLPFFTSF | 0.704 ± 0.028
RKKKNQKHKKKN | 0.705 ± 0.026
ITIPISGLQVGV | 0.591 ± 0.027
PPPTSSALPALV | 0.736 ± 0.037
LRPFSRVLRARS | 0.628 ± 0.019
GACWRDSHSGGD | 0.683 ± 0.023
VEGNLIYKKKYK | 0.656 ± 0.053
LRNCSVSGSIEW | 0.699 ± 0.019
GTGDGRHRCRWN | 0.6655 ± 0.006
RGRAVGVGGGGV | 0.626 ± 0.027
YLTNIHQRVLLP | 0.659 ± 0.031
RGGEGVWVVGRV | 0.703 ± 0.075
MCNLSLSCEGLG | 0.665 ± 0.045
RNSVGGHENWNQ | 0.703 ± 0.11
GRGGLGGWEWDR | 0.712 ± 0.034
FPPPCVLPLPRT | 0.723 ± 0.02
LANVGLDVSRIS | 0.696 ± 0.012
KRKEKAKRTKHV | 0.641 ± 0.035

Sequence | protein stability index
LLALPFPPSSLF | 0.701 ± 0.054
RWSCLADQSANR | 0.7052 ± 0.0051
ACGLGGPSDIDN | 0.672 ± 0.013
HTWALERVCSLD | 0.687 ± 0.066
PPPRTLARSRLP | 0.74 ± 0.016
APGPPLLLPPPL | 0.697 ± 0.1
YYPLLLASQLPI | 0.735 ± 0.0041
GSGGLRVVCLLM | 0.653 ± 0.027
WLFVGGWGVFGG | 0.674 ± 0.068
KRKEEKKPLINE | 0.734 ± 0.072
RCWEWADWPRDG | 0.764 ± 0.029
PPPPPPATPPPS | 0.681 ± 0.045
YQGERGAIGVIF | 0.605 ± 0.013
DSCQALIWLVFT | 0.586 ± 0.021
KGGFGCVGLPGG | 0.638 ± 0.031
ERNDLGNRLSMD | 0.654 ± 0.02
HSRTLTQKKTNN | 0.715 ± 0.038
ETNKEDKGKKSI | 0.6577 ± 0.0051
QGEARRPPSPGR | 0.638 ± 0.19
KTTKEKESQEKN | 0.723 ± 0.029
PPPIPGDPTPCP | 0.667 ± 0.021

Sequence | protein stability index
FTNDMSSGRVAI | 0.692 ± 0.016
PRRPLSTPTPLV | 0.666 ± 0.049
EAKKKRIDKKYE | 0.776 ± 0.068
GVRRVAVLYLLY | 0.527 ± 0.041
ITRAVLPARLFR | 0.705 ± 0.013
RTRKYEDKSARM | 0.688 ± 0.021
VSVFRFALGLQV | 0.563 ± 0.0058
GFAVGDQFIVPL | 0.687 ± 0.048
SPPSPLSLPLPS | 0.707 ± 0.014
CLLYPPYHFYIH | 0.567 ± 0.0066
LSGWIRTLLPET | 0.674 ± 0.047
YSSLLLPPLLLF | 0.621 ± 0.025
CGVGWGMVEGWR | 0.691 ± 0.016
PPCTVKAQRAYD | 0.694 ± 0.035
VLPKQVSEALTL | 0.612 ± 0.024
PISKLCLTSYEY | 0.697 ± 0.021
PRAPPPSPPPRP | 0.651 ± 0.04
RITWRSKKGLVI | 0.71 ± 0.031
WSVVRVGGCGAR | 0.699 ± 0.024
NVALPLSLLFGL | 0.633 ± 0.087
SSGCVNILIDLF | 0.638 ± 0.011

Sequence | protein stability index
HLLRSDPAWFSG | 0.705 ± 0.009
ASFFTARMYIIF | 0.676 ± 0.031
RPLPPLPRPPSP | 0.557 ± 0.02
KKEKKKTKKWQE | 0.694 ± 0.1
KQMRIEYKTRNI | 0.604 ± 0.015
APGWNNMALDVD | 0.728 ± 0.021
VGGGASGVGRSG | 0.63009 ± 0.00033
CRAAAGMVVWHG | 0.6835 ± 0.0056
PPPPPLPRSPSP | 0.807 ± 0.12
GRPLRAPPPPSP | 0.65 ± 0.043
SPPPSSSPPPSP | 0.612 ± 0.03
LVSSLVSSEVYM | 0.656 ± 0.019
VWGGGSWGGCGG | 0.744 ± 0.082
VGDGLGWGGQGG | 0.678 ± 0.03
DLPSSPCSYFRR | 0.616 ± 0.034
CDLISNFFLIGV | 0.633 ± 0.03
EGRGKGKKKKTH | 0.7 ± 0.036
ALIYMRGLGRFF | 0.555 ± 0.025
